Test results taken from US20200317768A1 (published 2020).
Where a chain is given by its changes, count along the chain named.

B1: MS_M103205H795-SG1/M103202L889-SK1 (antibody, human IgG1, kappa)
heavy: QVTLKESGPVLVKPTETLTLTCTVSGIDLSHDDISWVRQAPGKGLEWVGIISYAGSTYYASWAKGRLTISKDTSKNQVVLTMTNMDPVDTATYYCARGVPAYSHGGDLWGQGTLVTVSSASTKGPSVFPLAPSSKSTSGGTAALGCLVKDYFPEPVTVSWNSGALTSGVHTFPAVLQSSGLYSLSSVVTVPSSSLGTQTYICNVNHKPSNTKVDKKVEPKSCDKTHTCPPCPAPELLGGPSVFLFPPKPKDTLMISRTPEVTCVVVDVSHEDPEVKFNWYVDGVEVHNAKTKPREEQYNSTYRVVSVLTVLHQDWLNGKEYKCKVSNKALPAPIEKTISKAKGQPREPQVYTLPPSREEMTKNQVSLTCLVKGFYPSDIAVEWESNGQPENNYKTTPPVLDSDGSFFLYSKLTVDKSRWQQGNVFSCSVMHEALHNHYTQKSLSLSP
light: DIVMTQSPATLSLSPGERATLSCTSSQSVYHANWLSWFQQKPGQPPKLLIYWASTLAYGVPSRFSGSGSGTDFTLTISSLQPEDAATYYCAGGYGGGRYAFGQGTKVEIKRTVAAPSVFIFPPSDEQLKSGTASVVCLLNNFYPREAKVQWKVDNALQSGNSQESVTEQDSKDSTYSLSSTLTLSKADYEKHKVYACEVTHQGLSSPVTKSFNRGEC
notes: Parent antibody of the Fc variants; heavy chain constant region SG1, light chain M103202L889-SK1; also called MS1032LO06-SG1
B2: M103205H795-MY014/M103202L889-SK1 (antibody, human IgG1, kappa)
heavy: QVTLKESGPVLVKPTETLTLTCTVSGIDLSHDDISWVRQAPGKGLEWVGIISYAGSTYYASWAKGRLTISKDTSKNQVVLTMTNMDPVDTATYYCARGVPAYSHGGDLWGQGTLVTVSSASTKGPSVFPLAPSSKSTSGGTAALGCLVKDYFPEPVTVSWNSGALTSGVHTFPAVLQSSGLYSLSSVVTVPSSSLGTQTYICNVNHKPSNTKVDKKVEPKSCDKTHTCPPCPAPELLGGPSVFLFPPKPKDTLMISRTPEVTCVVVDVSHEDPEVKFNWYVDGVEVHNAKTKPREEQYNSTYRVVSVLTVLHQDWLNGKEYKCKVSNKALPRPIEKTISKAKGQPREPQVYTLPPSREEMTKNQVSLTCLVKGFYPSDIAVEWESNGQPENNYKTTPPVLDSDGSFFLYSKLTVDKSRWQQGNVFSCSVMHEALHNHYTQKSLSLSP
light: B1 light
notes: Substitution put into M103205H795-SG1
B3: M103205H795-MY037/M103202L889-SK1 (antibody, human IgG1, kappa)
heavy: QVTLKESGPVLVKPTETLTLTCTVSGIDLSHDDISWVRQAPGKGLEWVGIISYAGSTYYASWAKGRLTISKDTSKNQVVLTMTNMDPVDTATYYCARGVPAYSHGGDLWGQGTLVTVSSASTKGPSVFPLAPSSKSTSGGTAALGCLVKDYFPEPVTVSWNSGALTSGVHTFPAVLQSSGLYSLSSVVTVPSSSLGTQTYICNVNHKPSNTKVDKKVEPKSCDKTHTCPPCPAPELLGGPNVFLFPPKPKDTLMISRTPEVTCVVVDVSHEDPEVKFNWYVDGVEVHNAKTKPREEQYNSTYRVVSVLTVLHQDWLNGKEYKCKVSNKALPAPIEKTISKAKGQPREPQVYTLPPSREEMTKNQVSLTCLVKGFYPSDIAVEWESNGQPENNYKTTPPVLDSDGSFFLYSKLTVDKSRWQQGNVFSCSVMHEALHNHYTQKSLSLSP
light: B1 light
notes: as for B2
B4: M103205H795-MY041/M103202L889-SK1 (antibody, human IgG1, kappa)
heavy: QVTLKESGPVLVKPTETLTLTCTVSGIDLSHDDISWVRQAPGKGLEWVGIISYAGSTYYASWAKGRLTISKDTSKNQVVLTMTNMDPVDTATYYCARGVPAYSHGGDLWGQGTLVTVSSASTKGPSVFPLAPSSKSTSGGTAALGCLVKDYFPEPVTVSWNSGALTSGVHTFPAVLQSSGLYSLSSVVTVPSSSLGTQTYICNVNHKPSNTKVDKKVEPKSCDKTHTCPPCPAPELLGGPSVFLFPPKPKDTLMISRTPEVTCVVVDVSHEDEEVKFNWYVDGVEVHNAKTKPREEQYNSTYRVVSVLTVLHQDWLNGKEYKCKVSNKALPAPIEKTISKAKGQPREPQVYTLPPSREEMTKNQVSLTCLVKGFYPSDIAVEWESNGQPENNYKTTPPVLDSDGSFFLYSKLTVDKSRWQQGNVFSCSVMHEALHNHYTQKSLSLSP
light: B1 light
notes: as for B2
B5: M103205H795-MY013/M103202L889-SK1 (antibody, human IgG1, kappa)
heavy: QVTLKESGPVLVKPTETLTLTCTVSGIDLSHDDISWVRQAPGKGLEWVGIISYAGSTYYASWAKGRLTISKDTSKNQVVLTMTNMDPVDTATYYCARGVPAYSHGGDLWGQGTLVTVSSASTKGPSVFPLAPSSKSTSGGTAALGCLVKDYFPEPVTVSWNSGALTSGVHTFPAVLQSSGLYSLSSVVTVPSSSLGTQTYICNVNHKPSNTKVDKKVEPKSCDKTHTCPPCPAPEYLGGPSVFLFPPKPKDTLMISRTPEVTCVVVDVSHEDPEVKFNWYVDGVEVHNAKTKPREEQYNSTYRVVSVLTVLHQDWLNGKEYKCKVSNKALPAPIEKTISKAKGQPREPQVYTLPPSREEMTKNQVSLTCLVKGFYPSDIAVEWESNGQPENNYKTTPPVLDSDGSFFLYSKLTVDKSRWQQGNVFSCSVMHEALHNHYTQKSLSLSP
light: B1 light
notes: as for B2
B6: M103205H795-MY038/M103202L889-SK1 (antibody, human IgG1, kappa)
heavy: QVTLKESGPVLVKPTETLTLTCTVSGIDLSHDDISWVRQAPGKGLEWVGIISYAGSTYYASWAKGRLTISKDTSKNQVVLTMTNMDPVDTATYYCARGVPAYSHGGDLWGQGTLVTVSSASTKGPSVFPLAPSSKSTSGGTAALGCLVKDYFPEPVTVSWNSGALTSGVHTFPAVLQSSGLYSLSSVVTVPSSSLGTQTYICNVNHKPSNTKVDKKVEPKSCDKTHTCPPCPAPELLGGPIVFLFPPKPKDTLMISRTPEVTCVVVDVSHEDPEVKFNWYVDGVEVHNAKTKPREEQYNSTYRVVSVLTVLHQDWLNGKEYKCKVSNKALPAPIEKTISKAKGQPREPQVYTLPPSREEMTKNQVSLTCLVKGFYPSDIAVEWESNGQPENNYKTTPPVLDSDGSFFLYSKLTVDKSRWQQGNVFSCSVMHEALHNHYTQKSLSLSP
light: B1 light
notes: as for B2
B7: M103205H795-MY006/M103202L889-SK1 (antibody, human IgG1, kappa)
heavy: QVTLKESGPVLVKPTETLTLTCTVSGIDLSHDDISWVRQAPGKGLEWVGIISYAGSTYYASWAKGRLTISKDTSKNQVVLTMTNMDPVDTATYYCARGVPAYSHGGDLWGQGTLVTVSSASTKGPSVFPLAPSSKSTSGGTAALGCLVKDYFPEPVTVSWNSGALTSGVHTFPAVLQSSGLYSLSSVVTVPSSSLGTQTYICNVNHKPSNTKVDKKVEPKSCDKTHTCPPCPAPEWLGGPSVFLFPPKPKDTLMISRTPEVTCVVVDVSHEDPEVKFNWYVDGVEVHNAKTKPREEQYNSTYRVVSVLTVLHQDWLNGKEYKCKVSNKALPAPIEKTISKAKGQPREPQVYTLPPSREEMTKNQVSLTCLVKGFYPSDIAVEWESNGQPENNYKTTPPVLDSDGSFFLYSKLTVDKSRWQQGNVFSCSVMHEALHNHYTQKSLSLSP
light: B1 light
notes: as for B2
B8: M103205H795-MY010/M103202L889-SK1 (antibody, human IgG1, kappa)
heavy: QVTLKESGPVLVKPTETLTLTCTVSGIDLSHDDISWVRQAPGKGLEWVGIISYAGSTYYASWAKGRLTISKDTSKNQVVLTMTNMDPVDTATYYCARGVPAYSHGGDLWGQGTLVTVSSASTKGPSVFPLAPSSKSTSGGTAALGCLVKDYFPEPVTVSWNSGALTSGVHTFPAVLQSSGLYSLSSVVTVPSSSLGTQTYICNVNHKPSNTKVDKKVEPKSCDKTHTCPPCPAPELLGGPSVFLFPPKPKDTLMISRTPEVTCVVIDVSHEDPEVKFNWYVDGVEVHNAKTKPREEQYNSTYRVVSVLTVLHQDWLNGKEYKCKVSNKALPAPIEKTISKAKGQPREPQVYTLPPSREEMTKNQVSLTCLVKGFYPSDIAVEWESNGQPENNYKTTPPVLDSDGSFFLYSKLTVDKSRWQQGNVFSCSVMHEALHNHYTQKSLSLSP
light: B1 light
notes: as for B2
B9: M103205H795-MY044/M103202L889-SK1 (antibody, human IgG1, kappa)
heavy: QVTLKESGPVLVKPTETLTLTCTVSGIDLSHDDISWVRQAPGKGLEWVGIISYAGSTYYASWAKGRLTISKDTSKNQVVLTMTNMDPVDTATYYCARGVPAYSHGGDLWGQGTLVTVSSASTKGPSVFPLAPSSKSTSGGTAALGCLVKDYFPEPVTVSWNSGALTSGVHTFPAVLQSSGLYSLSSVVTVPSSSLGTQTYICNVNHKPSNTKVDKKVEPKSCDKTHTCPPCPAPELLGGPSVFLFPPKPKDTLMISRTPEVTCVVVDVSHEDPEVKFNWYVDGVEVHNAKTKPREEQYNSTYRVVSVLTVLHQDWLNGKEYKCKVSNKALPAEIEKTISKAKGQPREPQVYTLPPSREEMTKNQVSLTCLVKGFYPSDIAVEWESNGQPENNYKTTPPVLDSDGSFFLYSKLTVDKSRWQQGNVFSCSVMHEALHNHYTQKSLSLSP
light: B1 light
notes: as for B2
B10: M103205H795-MY008/M103202L889-SK1 (antibody, human IgG1, kappa)
heavy: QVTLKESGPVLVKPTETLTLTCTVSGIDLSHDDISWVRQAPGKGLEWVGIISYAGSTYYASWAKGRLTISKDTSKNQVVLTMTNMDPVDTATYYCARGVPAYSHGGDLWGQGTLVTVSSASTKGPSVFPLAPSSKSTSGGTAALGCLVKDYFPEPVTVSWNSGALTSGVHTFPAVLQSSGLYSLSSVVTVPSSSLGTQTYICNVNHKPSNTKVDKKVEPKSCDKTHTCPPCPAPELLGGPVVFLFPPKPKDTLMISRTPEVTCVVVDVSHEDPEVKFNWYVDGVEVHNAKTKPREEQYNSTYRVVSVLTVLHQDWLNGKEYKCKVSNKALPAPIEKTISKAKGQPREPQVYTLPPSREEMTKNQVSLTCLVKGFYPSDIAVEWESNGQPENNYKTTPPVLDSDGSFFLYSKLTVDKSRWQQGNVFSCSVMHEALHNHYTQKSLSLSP
light: B1 light
notes: as for B2
B11: M103205H795-MY016/M103202L889-SK1 (antibody, human IgG1, kappa)
heavy: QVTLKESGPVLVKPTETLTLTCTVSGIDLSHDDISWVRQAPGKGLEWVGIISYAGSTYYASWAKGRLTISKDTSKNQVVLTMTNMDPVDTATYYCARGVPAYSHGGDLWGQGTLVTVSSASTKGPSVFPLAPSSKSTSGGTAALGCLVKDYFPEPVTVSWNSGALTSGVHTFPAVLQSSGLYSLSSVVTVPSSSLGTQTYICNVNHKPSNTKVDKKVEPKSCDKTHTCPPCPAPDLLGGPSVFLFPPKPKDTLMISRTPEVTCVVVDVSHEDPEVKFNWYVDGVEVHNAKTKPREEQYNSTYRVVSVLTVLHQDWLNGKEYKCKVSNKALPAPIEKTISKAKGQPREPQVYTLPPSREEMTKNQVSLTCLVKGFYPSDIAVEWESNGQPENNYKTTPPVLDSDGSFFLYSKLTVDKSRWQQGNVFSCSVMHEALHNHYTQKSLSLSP
light: B1 light
notes: as for B2
B12: M103205H795-MY043/M103202L889-SK1 (antibody, human IgG1, kappa)
heavy: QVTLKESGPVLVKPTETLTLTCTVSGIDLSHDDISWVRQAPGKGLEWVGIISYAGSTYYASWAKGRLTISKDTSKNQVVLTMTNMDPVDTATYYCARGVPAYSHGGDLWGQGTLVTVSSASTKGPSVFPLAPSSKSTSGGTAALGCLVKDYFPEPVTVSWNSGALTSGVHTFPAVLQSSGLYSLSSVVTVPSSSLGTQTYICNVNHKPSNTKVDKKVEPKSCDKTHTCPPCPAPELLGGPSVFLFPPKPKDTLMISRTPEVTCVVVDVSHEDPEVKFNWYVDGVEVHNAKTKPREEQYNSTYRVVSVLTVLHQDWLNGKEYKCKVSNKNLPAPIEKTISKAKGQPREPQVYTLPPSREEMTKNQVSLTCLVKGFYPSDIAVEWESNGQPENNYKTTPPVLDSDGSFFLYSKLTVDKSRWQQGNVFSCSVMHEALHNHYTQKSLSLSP
light: B1 light
notes: as for B2

Assays:
Experiment in all cases: SPR; KD of SG1 / KD of variant
[1] = target: T1, cynomolgus monkey FcγRIIa1 extracellular domain, His-tagged (cynomolgus monkey)
T1 construct: also called cyno FcγRIIa1; cynoFcgRIIa1
T1 chain: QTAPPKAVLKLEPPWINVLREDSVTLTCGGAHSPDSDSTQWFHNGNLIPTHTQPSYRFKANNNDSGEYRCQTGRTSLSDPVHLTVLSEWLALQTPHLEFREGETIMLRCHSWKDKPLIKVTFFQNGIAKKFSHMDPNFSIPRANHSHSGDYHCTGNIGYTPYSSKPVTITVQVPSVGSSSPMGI

[2] = target: T2, human FcγRIIaH extracellular domain, His-tagged (human, UniProt P12318 34-217)
T2 construct: also called human FcγRIIa (type H); FcgRIIaH
T2 sequence: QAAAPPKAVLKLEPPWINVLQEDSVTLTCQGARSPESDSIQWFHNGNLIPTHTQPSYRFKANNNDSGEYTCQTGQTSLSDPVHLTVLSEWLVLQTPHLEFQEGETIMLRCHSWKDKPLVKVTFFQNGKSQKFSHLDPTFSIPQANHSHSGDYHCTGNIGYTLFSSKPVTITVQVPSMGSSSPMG

[3] = target: T3, cynomolgus monkey FcγRIIb extracellular domain, His-tagged (cynomolgus monkey)
T3 construct: also called cyno FcγRIIb; cynoFcγRIIb
T3 chain: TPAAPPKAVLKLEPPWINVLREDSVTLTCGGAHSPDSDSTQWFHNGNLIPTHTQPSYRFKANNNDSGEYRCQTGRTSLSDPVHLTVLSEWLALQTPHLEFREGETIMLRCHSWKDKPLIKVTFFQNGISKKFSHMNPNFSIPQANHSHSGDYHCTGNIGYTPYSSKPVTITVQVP

[4] = target: T4, cynomolgus monkey FcγRIIa3 extracellular domain, His-tagged (cynomolgus monkey)
T4 construct: also called cyno FcγRIIa3; cynoFcgRIIa3
T4 chain: T1 chain with P95T, T121A, A128S, H133P, D135N

[5] = target: T5, cynomolgus monkey FcγRIIa2 extracellular domain, His-tagged (cynomolgus monkey)
T5 construct: also called cyno FcγRIIa2; cynoFcgRIIa2
T5 chain: T1 chain with P95T, T121A, I127K, A128S, K130N, D135N, R142Q

[6] = target: T6, human FcγRIIIaV extracellular domain, His-tagged (human, UniProt P08637 17-208)
T6 construct: also called FcgRIIIaV
T6 sequence (P08637 17-208 F176V): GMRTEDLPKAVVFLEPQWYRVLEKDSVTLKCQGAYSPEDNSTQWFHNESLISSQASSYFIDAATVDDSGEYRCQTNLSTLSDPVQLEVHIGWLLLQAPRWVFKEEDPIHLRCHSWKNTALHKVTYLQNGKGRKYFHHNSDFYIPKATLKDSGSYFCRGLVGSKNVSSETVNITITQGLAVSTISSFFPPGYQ

[7] = target: T7, human FcγRIIb extracellular domain, His-tagged (human, UniProt P31994 43-217)
T7 construct: also called FcgRIIb (human)
T7 sequence: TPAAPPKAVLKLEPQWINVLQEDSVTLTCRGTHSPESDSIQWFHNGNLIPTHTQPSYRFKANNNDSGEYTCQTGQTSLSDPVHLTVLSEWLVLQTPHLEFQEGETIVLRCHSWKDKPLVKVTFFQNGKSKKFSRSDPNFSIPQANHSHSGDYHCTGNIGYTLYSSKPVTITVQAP

[8] = target: T8, human FcγRIIaR extracellular domain, His-tagged (human, UniProt P12318 34-217)
T8 construct: also called human FcγRIIa (type R); FcgRIIaR
T8 chain: T2 sequence with H134R

[9] = target: T9, cynomolgus monkey FcγRIIIaS extracellular domain, His-tagged (cynomolgus monkey, UniProt Q8SPW2 21-206 at identity 1.00))
T9 construct: also called cyno FcγRIIIaS; cynoFcγRIIIaS
T9 chain: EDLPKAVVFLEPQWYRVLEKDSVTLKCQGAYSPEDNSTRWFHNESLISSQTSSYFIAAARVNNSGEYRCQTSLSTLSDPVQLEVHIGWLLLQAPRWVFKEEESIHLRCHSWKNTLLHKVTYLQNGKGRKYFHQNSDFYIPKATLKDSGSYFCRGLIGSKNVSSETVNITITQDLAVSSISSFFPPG

KD fold (SG1 = 1) [1]	KD fold (SG1 = 1) [2]	KD fold (SG1 = 1) [3]	KD fold (SG1 = 1) [4]	KD fold (SG1 = 1) [5]	KD fold (SG1 = 1) [6]	KD fold (SG1 = 1) [7]	KD fold (SG1 = 1) [8]	KD fold (SG1 = 1) [9]	Binder
1 fold	1 fold	1 fold	1 fold	1 fold	1 fold	1 fold	1 fold	1 fold	B1
1.3 fold	1.3 fold	1.2 fold	1.4 fold	2 fold	1.17 fold	1 fold	1.1 fold	0.9 fold	B2
0.8 fold	0.6 fold	0.8 fold	1.5 fold	1.1 fold	2.15 fold	1.8 fold	1.2 fold	1.8 fold	B3
0.8 fold	0.4 fold	0.5 fold	2.3 fold	1.2 fold	1.69 fold	1.6 fold	0.9 fold	1.38 fold	B4
0.7 fold	0.3 fold	0.9 fold	0.3 fold	1.1 fold	1.98 fold	1.2 fold	0.2 fold	1.09 fold	B5
0.8 fold	0.6 fold	0.9 fold	1.5 fold	1.1 fold	1.47 fold	1.8 fold	0.7 fold	1.16 fold	B6
1.6 fold	0.5 fold	2 fold	4.7 fold	2.7 fold	1.12 fold	2 fold	0.6 fold	1.13 fold	B7
0.5 fold	0.6 fold	0.5 fold	1.2 fold	1 fold	3.68 fold	0.9 fold	0.6 fold	1.64 fold	B8
1 fold	0.6 fold	1.1 fold	0.3 fold	1.5 fold	0.9 fold	1.4 fold	1.2 fold	0.77 fold	B9
0.8 fold	0.4 fold	1.1 fold	0.7 fold	1.4 fold	1.29 fold	1.8 fold	0.6 fold	0.97 fold	B10
1.1 fold	0.8 fold	1.1 fold	5.3 fold	1.5 fold	2.15 fold	1.6 fold	1.2 fold	1.57 fold	B11
0.6 fold	0.2 fold	0.4 fold	0.9 fold	0.1 fold	0.68 fold	1.5 fold	0.7 fold	0.43 fold	B12
